The test deals with T1, His-SlmA/SBS (E. coli), P0C093.
T1 chain: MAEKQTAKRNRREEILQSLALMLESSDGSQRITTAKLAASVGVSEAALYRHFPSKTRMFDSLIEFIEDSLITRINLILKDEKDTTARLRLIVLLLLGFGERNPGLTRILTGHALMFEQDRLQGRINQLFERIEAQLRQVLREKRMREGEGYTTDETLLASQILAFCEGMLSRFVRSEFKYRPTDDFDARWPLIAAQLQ
Put plainly: BLI. To be noted: remark: other sources report otherwise.

B1: FtsZ-360, P0A9A6 1-360 (domain or fragment)
chain: MFEPMELTNDAVIKVIGVGGGGGNAVEHMVRERIEGVEFFAVNTDAQALRKTAVGQTIQIGSGITKGLGAGANPEVGRNAADEDRDALRAALEGADMVFIAAGMGGGTGTGAAPVVAEVAKDLGILTVAVVTKPFNFEGKKRMAFAEQGITELSKHVDSLITIPNDKLLKVLGRGISLLDAFGAANDVLKGAVQGIAELITRPGLMNVDFADVRTVMSEMGYAMMGSGVASGEDRAEEAAEMAISSPLLEDIDLSGARGVLVNITAGFDLRLDEFETVGNTIRAFASDNATVVIGTSLDPDMNDELRVTVVATGIGMDKRPEITLVTNKQVQQPVMDRYQQHGMAPLTQEQKPVAKVVND
The molecule B1 registered a Kd of 82 µM.

The values are drawn from paper PMC4364296.
